The text below walks through data of patent US20240327535A1 (EISAI R AND D MANAGEMENT, published 2024).

The target in this test is T1, extracellular domain of human BCMA (human, UniProt Q02223 1-54).
T1 construct: amine-linked to Octet AR2G tips; also called hsBCMA; BCMA (human)
T1 sequence: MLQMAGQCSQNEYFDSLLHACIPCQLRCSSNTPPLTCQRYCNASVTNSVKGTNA
In words: Octet BLI; Fab 200 nM.

B1: AB200-R1H26-R2Vk1 (Fab, V domains shown)
VH: QVQLVQSGAEVKKPGSSVKVSCKASGGSFSNYWMHWVRQAPGQGLEWMGATYRIHSDTFYNQKFKGRVTITADKSTSTAYMELSSLRSEDTAVYYCARGAIYHGYDVLDNWGQGTLVTVSS
VL: DIQMTQSPSSLSASVGDRVTITCRASQSISSYLNWYQQKPGKAPKLLIYAASSLQSGVPSRFSGSGSGTDFTLTISSLQPEDFATYYCQQFRKLPWSFGQGTKLEIKR
Usually Kd stands for the concentration at which binding is half-saturated. Low readings indicate a tighter complex, high ones a looser complex. As for B1, the Kd was 2.04 nM.

B2: AB200-R1H26-R2Vk7 (Fab, V domains shown)
VH: QVQLVQSGAEVKKPGSSVKVSCKASGGSFSNYWMHWVRQAPGQGLEWMGATYRIHSDTFYNQKFKGRVTITADKSTSTAYMELSSLRSEDTAVYYCARGAIYHGYDVLDNWGQGTLVTVSS
VL: DIQMTQSPSSLSASVGDRVTITCRASQSISSYINWYQQKPGKAPKLLIYATSNIQSGVPSRFSGSGSGTDFTLTISSLQPEDFATYYCQQFRKLPWSFGQGTKLEIKR
In turn, B2 registered a Kd of 2.17 nM.

B3: AB200-R1H26-R2Vk12 (Fab, V domains shown)
VH: QVQLVQSGAEVKKPGSSVKVSCKASGGSFSNYWMHWVRQAPGQGLEWMGATYRIHSDTFYNQKFKGRVTITADKSTSTAYMELSSLRSEDTAVYYCARGAIYHGYDVLDNWGQGTLVTVSS
VL: DIQMTQSPSSLSASVGDRVTITCRASQSISSYLNWYQQKPGKAPKLLIYAASSLQSGVPSRFSGSGSGTDFTLTISSLQPEDFATYYCQQYRKIPWSFGQGTKLEIKR
B3: the equilibrium dissociation constant (Kd) amounted to 3.72 nM.

B4: AB200-R1H26-R2Vk24 (Fab, V domains shown)
VH: QVQLVQSGAEVKKPGSSVKVSCKASGGSFSNYWMHWVRQAPGQGLEWMGATYRIHSDTFYNQKFKGRVTITADKSTSTAYMELSSLRSEDTAVYYCARGAIYHGYDVLDNWGQGTLVTVSS
VL: DIQMTQSPSSLSASVGDRVTITCRASQSISSYLNWYQQKPGKAPKLLIYATSNIQSGVPSRFSGSGSGTDFTLTISSLQPEDFATYYCQQYRRLPWSFGQGTKLEIKR
As to B4, the affinity, expressed as Kd, was 1.62 nM.

B5: AB200-R1H26-R2Vk26 (Fab, V domains shown)
VH: QVQLVQSGAEVKKPGSSVKVSCKASGGSFSNYWMHWVRQAPGQGLEWMGATYRIHSDTFYNQKFKGRVTITADKSTSTAYMELSSLRSEDTAVYYCARGAIYHGYDVLDNWGQGTLVTVSS
VL: DIQMTQSPSSLSASVGDRVTITCRASQSISSYLNWYQQKPGKAPKLLIYATSNIQSGVPSRFSGSGSGTDFTLTISSLQPEDFATYYCQQFRRLPWTFGQGTKLEIKR
The molecule B5 showed an equilibrium dissociation constant (Kd) of 1.46 nM.

B6: AB200-R1H26-R2Vk11 (Fab, V domains shown)
VH: QVQLVQSGAEVKKPGSSVKVSCKASGGSFSNYWMHWVRQAPGQGLEWMGATYRIHSDTFYNQKFKGRVTITADKSTSTAYMELSSLRSEDTAVYYCARGAIYHGYDVLDNWGQGTLVTVSS
VL: DIQMTQSPSSLSASVGDRVTITCRASQSISSYLNWYQQKPGKAPKLLIYAASSLQSGVPSRFSGSGSGTDFTLTISSLQPEDFATYYCQQFRRLPWTFGQGTKLEIKR
As to B6, binding was put at a Kd of 1.55 nM.

B7: AB200-R1H26-R2Vk3 (Fab, V domains shown)
VH: QVQLVQSGAEVKKPGSSVKVSCKASGGSFSNYWMHWVRQAPGQGLEWMGATYRIHSDTFYNQKFKGRVTITADKSTSTAYMELSSLRSEDTAVYYCARGAIYHGYDVLDNWGQGTLVTVSS
VL: DIQMTQSPSSLSASVGDRVTITCRASQSISSYLNWYQQKPGKAPKLLIYATSNLQSGVPSRFSGSGSGTDFTLTISSLQPEDFATYYCQQFRKLPWSFGQGTKLEIKR
B7 gave an equilibrium dissociation constant (Kd) of 1.62 nM.

B8: AB200-R1H26-R2Vk9 (Fab, V domains shown)
VH: QVQLVQSGAEVKKPGSSVKVSCKASGGSFSNYWMHWVRQAPGQGLEWMGATYRIHSDTFYNQKFKGRVTITADKSTSTAYMELSSLRSEDTAVYYCARGAIYHGYDVLDNWGQGTLVTVSS
VL: DIQMTQSPSSLSASVGDRVTITCRASQSISSYLNWYQQKPGKAPKLLIYAASSLQSGVPSRFSGSGSGTDFTLTISSLQPEDFATYYCQQYRRLPWSFGQGTKLEIKR
With B8, the Kd stood at 2.35 nM.

B9: AB200-R1H26-R2Vk6 (Fab, V domains shown)
VH: QVQLVQSGAEVKKPGSSVKVSCKASGGSFSNYWMHWVRQAPGQGLEWMGATYRIHSDTFYNQKFKGRVTITADKSTSTAYMELSSLRSEDTAVYYCARGAIYHGYDVLDNWGQGTLVTVSS
VL: DIQMTQSPSSLSASVGDRVTITCRASQSISSYINWYQQKPGKAPKLLIYATSNLQSGVPSRFSGSGSGTDFTLTISSLQPEDFATYYCQQFRKLPWSFGQGTKLEIKR
Regarding B9, binding was characterised by a dissociation constant (Kd) of 2.08 nM.

B10: AB200-R1H26-R2Vk13 (Fab, V domains shown)
VH: QVQLVQSGAEVKKPGSSVKVSCKASGGSFSNYWMHWVRQAPGQGLEWMGATYRIHSDTFYNQKFKGRVTITADKSTSTAYMELSSLRSEDTAVYYCARGAIYHGYDVLDNWGQGTLVTVSS
VL: DIQMTQSPSSLSASVGDRVTITCRASQSISSYLNWYQQKPGKAPKLLIYAASSLQSGVPSRFSGSGSGTDFTLTISSLQPEDFATYYCQQFRKIPWTFGQGTKLEIKR
In turn, B10 had a dissociation constant (Kd) of 3.02 nM.

B11: AB200-R1H26-R2Vk5 (Fab, V domains shown)
VH: QVQLVQSGAEVKKPGSSVKVSCKASGGSFSNYWMHWVRQAPGQGLEWMGATYRIHSDTFYNQKFKGRVTITADKSTSTAYMELSSLRSEDTAVYYCARGAIYHGYDVLDNWGQGTLVTVSS
VL: DIQMTQSPSSLSASVGDRVTITCRASQSISSYLNWYQQKPGKAPKLLIYATSNLQIGVPSRFSGSGSGTDFTLTISSLQPEDFATYYCQQFRKLPWSFGQGTKLEIKR
Consider B11, for which binding was put at a Kd of 1.29 nM.

B12: AB200-R1H26-R2Vk20 (Fab, V domains shown)
VH: QVQLVQSGAEVKKPGSSVKVSCKASGGSFSNYWMHWVRQAPGQGLEWMGATYRIHSDTFYNQKFKGRVTITADKSTSTAYMELSSLRSEDTAVYYCARGAIYHGYDVLDNWGQGTLVTVSS
VL: DIQMTQSPSSLSASVGDRVTITCRASQSISSYLNWYQQKPGKAPKLLIYATSNLQSGVPSRFSGSGSGTDFTLTISSLQPEDFATYYCQQYRRIPWTFGQGTKLEIKR
As for B12, the Kd was found to be 2.1 nM.

B13: AB200-R1H26-R2Vk27 (Fab, V domains shown)
VH: QVQLVQSGAEVKKPGSSVKVSCKASGGSFSNYWMHWVRQAPGQGLEWMGATYRIHSDTFYNQKFKGRVTITADKSTSTAYMELSSLRSEDTAVYYCARGAIYHGYDVLDNWGQGTLVTVSS
VL: DIQMTQSPSSLSASVGDRVTITCRASQSISSYLNWYQQKPGKAPKLLIYATSNIQSGVPSRFSGSGSGTDFTLTISSLQPEDFATYYCQQYRKIPWSFGQGTKLEIKR
Molecule B13 showed a Kd of 2.33 nM.

B14: AB200-R1H26-R2Vk8 (Fab, V domains shown)
VH: QVQLVQSGAEVKKPGSSVKVSCKASGGSFSNYWMHWVRQAPGQGLEWMGATYRIHSDTFYNQKFKGRVTITADKSTSTAYMELSSLRSEDTAVYYCARGAIYHGYDVLDNWGQGTLVTVSS
VL: DIQMTQSPSSLSASVGDRVTITCRASQSISSYINWYQQKPGKAPKLLIYATSNLQIGVPSRFSGSGSGTDFTLTISSLQPEDFATYYCQQFRKLPWSFGQGTKLEIKR
As for B14, binding was put at a Kd of 1.69 nM.

B15: AB200-R1H26-R2Vk25 (Fab, V domains shown)
VH: QVQLVQSGAEVKKPGSSVKVSCKASGGSFSNYWMHWVRQAPGQGLEWMGATYRIHSDTFYNQKFKGRVTITADKSTSTAYMELSSLRSEDTAVYYCARGAIYHGYDVLDNWGQGTLVTVSS
VL: DIQMTQSPSSLSASVGDRVTITCRASQSISSYLNWYQQKPGKAPKLLIYATSNIQSGVPSRFSGSGSGTDFTLTISSLQPEDFATYYCQQYRRIPWTFGQGTKLEIKR
In turn, B15 came in with a Kd of 2.04 nM.

B16: AB200-R1H26-R2Vk19 (Fab, V domains shown)
VH: QVQLVQSGAEVKKPGSSVKVSCKASGGSFSNYWMHWVRQAPGQGLEWMGATYRIHSDTFYNQKFKGRVTITADKSTSTAYMELSSLRSEDTAVYYCARGAIYHGYDVLDNWGQGTLVTVSS
VL: DIQMTQSPSSLSASVGDRVTITCRASQSISSYLNWYQQKPGKAPKLLIYATSNLQSGVPSRFSGSGSGTDFTLTISSLQPEDFATYYCQQYRRLPWSFGQGTKLEIKR
Take B16: the affinity, expressed as Kd, was 1.62 nM.

B17: AB200-R1H26-R2Vk23 (Fab, V domains shown)
VH: QVQLVQSGAEVKKPGSSVKVSCKASGGSFSNYWMHWVRQAPGQGLEWMGATYRIHSDTFYNQKFKGRVTITADKSTSTAYMELSSLRSEDTAVYYCARGAIYHGYDVLDNWGQGTLVTVSS
VL: DIQMTQSPSSLSASVGDRVTITCRASQSISSYLNWYQQKPGKAPKLLIYATSNLQSGVPSRFSGSGSGTDFTLTISSLQPEDFATYYCQQFRKIPWTFGQGTKLEIKR
Turning to B17, binding was put at a Kd of 2.28 nM.

B18: AB200-R1H26-R2Vk21 (Fab, V domains shown)
VH: QVQLVQSGAEVKKPGSSVKVSCKASGGSFSNYWMHWVRQAPGQGLEWMGATYRIHSDTFYNQKFKGRVTITADKSTSTAYMELSSLRSEDTAVYYCARGAIYHGYDVLDNWGQGTLVTVSS
VL: DIQMTQSPSSLSASVGDRVTITCRASQSISSYLNWYQQKPGKAPKLLIYATSNLQSGVPSRFSGSGSGTDFTLTISSLQPEDFATYYCQQFRRLPWTFGQGTKLEIKR
Take B18: binding was put at a Kd of 1.27 nM.

B19: AB200-R1H26-R2Vk22 (Fab, V domains shown)
VH: QVQLVQSGAEVKKPGSSVKVSCKASGGSFSNYWMHWVRQAPGQGLEWMGATYRIHSDTFYNQKFKGRVTITADKSTSTAYMELSSLRSEDTAVYYCARGAIYHGYDVLDNWGQGTLVTVSS
VL: DIQMTQSPSSLSASVGDRVTITCRASQSISSYLNWYQQKPGKAPKLLIYATSNLQSGVPSRFSGSGSGTDFTLTISSLQPEDFATYYCQQYRKIPWSFGQGTKLEIKR
The molecule B19 showed a Kd of 2.24 nM.

B20: AB200-R1H26-R2Vk10 (Fab, V domains shown)
VH: QVQLVQSGAEVKKPGSSVKVSCKASGGSFSNYWMHWVRQAPGQGLEWMGATYRIHSDTFYNQKFKGRVTITADKSTSTAYMELSSLRSEDTAVYYCARGAIYHGYDVLDNWGQGTLVTVSS
VL: DIQMTQSPSSLSASVGDRVTITCRASQSISSYLNWYQQKPGKAPKLLIYAASSLQSGVPSRFSGSGSGTDFTLTISSLQPEDFATYYCQQYRRIPWTFGQGTKLEIKR
For the molecule B20, binding was characterised by a dissociation constant (Kd) of 3.23 nM.

B21: AB200-R1H26-R2Vk4 (Fab, V domains shown)
VH: QVQLVQSGAEVKKPGSSVKVSCKASGGSFSNYWMHWVRQAPGQGLEWMGATYRIHSDTFYNQKFKGRVTITADKSTSTAYMELSSLRSEDTAVYYCARGAIYHGYDVLDNWGQGTLVTVSS
VL: DIQMTQSPSSLSASVGDRVTITCRASQSISSYLNWYQQKPGKAPKLLIYATSNIQSGVPSRFSGSGSGTDFTLTISSLQPEDFATYYCQQFRKLPWSFGQGTKLEIKR
For the molecule B21, binding was characterised by a dissociation constant (Kd) of 1.7 nM.
